Experiments:
[1] = target: POLR2A fragment Ile1231-Lys1350 (UniProt P24928 1231-1350); assay: EMSA
RAD21 = target: T1, RAD21 (UniProt O60216 1-631); assay: EMSA
T1 sequence: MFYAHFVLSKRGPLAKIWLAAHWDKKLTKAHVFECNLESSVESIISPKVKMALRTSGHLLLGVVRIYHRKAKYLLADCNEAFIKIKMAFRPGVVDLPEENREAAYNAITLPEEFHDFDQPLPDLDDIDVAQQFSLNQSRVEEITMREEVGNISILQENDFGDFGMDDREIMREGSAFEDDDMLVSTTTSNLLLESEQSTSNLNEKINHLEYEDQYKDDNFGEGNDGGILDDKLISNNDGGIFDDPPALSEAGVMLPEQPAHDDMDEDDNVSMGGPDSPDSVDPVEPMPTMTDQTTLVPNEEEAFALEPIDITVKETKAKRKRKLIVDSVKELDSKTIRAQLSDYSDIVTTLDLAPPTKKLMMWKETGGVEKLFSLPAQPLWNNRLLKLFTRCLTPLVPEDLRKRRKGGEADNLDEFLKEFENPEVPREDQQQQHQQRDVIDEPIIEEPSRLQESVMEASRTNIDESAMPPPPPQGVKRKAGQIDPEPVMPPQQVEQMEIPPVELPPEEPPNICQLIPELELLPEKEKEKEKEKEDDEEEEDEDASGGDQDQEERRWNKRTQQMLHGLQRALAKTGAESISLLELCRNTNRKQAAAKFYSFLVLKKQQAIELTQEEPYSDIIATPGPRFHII

Sequence of POLR2A fragment Ile1231-Lys1350 (P24928 1231-1350): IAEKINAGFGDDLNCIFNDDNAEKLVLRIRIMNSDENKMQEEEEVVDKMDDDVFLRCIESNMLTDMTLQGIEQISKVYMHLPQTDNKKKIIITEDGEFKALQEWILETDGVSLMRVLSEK

B1: rs1950834-G probe (dsDNA)
DNA 1: TCGGAGTTTGGCCTTCCGGCTCTCCAACTCAGATC
DNA 2: GATCTGAGTTGGAGAGCCGGAAGGCCAAACTCCGA
- binding result [1]: binds
- binding result (RAD21): binds

Source: publication PMC12123872
